Test results reported in patent publication US20240043504A1.

What was measured:
[1] = target: full-length SARS-CoV-2 spike protein (amino acids M1-T1273 of accession number YP_009724390.1) on Ju (SARS-CoV-2) (UniProt P0DTC2); experiment: cell-based or functional assay
[2] = target: human FcγR3a 176Val allotype receptor (human) (UniProt P08637); experiment: cell-based or functional assay
[3] = target: MOD1-SARS-CoV-2 Spike Protein (RBD)(R319-F541).mmH (SARS-CoV-2); experiment: Luminex beads, supernatant
[4] = target: MOD10-SARS-CoV-2 Spike Protein (RBD)(R319-F541).mmH (SARS-CoV-2); experiment: Luminex beads, supernatant
[5] = target: MOD11-SARS-CoV-2 Spike Protein (RBD)(R319-F541).mmH (SARS-CoV-2); experiment: Luminex beads, supernatant
[6] = target: MOD12-SARS-CoV-2 Spike Protein (RBD)(R319-F541).mmH (SARS-CoV-2); experiment: Luminex beads, supernatant
[7] = target: MOD13-SARS-CoV-2 Spike Protein (RBD)(R319-F541).mmH (SARS-CoV-2); experiment: Luminex beads, supernatant
[8] = target: MOD14-SARS-CoV-2 Spike Protein (RBD)(R319-F541).mmH (SARS-CoV-2); experiment: Luminex beads, supernatant
[9] = target: MOD15-SARS-CoV-2 Spike Protein (RBD)(R319-F541).mmH (SARS-CoV-2); experiment: Luminex beads, supernatant
[10] = target: MOD2-SARS-CoV-2 Spike Protein (RBD)(R319-F541).mmH (SARS-CoV-2); experiment: Luminex beads, supernatant
[11] = target: MOD3-SARS-CoV-2 Spike Protein (RBD)(R319-F541).mmH (SARS-CoV-2); experiment: Luminex beads, supernatant
[12] = target: MOD4-SARS-CoV-2 Spike Protein (RBD)(R319-F541).mmH (SARS-CoV-2); experiment: Luminex beads, supernatant
[13] = target: MOD5-SARS-CoV-2 Spike Protein (RBD)(R319-F541).mmH (SARS-CoV-2); experiment: Luminex beads, supernatant
[14] = target: MOD6-SARS-CoV-2 Spike Protein (RBD)(R319-F541).mmH (SARS-CoV-2); experiment: Luminex beads, supernatant
[15] = target: MOD7-SARS-CoV-2 Spike Protein (RBD)(R319-F541).mmH (SARS-CoV-2); experiment: Luminex beads, supernatant
[16] = target: MOD8-SARS-CoV-2 Spike Protein (RBD)(R319-F541).mmH (SARS-CoV-2); experiment: Luminex beads, supernatant
[17] = target: MOD9-SARS-CoV-2 Spike Protein (RBD)(R319-F541).mmH (SARS-CoV-2); experiment: Luminex beads, supernatant
[18] = target: SARS-CoV-2 spike protein (S-wt, Wuhan-Hu-1, NCBI Accession Number MN908947.3) on VSV pseudoparticles (SARS-CoV-2) (UniProt P0DTC2); experiment: cell-based or functional assay
[19] = target: SARS-CoV-2 spike protein on VSV-SARS-CoV-2-S pseudovirus (SARS-CoV-2) (UniProt P0DTC2); experiment: cell-based or functional assay
[20] = target: SARS-CoV-2 spike protein, Wuhan-Hu-1 sequence (S-wt), on VSV pseudoparticles (SARS-CoV-2) (UniProt P0DTC2); experiment: cell-based or functional assay
[21] = target: Bt-MERS.hFc (mAb2664-L2) (MERS-CoV) (UniProt K9N5Q8); experiment: Luminex bead binding, supernatant
[22] = target: MERS.hFc (mAb2664-L1) (MERS-CoV) (UniProt K9N5Q8); experiment: Luminex bead binding, supernatant
[23] = target: MERS.mFc (mAb2663-L1) (MERS-CoV) (UniProt K9N5Q8); experiment: Luminex bead binding, supernatant

human FcγR3a 176Val allotype receptor (human), sequence (P08637 17-254 F176V): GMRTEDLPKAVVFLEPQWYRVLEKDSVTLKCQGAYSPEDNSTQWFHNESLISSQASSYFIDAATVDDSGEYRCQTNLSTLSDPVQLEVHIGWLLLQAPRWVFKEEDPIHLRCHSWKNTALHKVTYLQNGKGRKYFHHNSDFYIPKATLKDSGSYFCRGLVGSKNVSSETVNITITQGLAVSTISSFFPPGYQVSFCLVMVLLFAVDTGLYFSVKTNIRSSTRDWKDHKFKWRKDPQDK

## IgG1 Isotype Control (antibody)
[1]
  ADCP Max (% ADCP), Jurkat/hCD20/SARS-CoV-2 Spike cells: 10.4%

## mAb10934 (antibody)
[2]
  ADCC Mean RLU (surrogate reporter assay, spike-expressing target cells): 11700 RLU
[3]
  Binding signal (MFI): 81 MFI
[4]
  Binding signal (MFI): 30400 MFI
[5]
  Binding signal (MFI): 30700 MFI
[6]
  Binding signal (MFI): 32900 MFI
[7]
  Binding signal (MFI): 30500 MFI
[8]
  Binding signal (MFI): 28600 MFI
[9]
  Binding signal (MFI): 27800 MFI
[10]
  Binding signal (MFI): 27700 MFI
[11]
  Binding signal (MFI): 25100 MFI
[12]
  Binding signal (MFI): 31700 MFI
[13]
  Binding signal (MFI): 6650 MFI
[14]
  Binding signal (MFI): 30800 MFI
[15]
  Binding signal (MFI): 29900 MFI
[16]
  Binding signal (MFI): 6410 MFI
[17]
  Binding signal (MFI): 31300 MFI

## mAb10987 (antibody)
[18]
  IC50 (M), neutralization: 4.06e-11 M
[19]
  Neutralization (1:4 dilution): 99.3%
  Neutralization (1:20 dilution): 97.7%
  Neutralization (1:100 dilution): 94.6%
[20]
  Relative neutralization (5 µg/ml, Vero cells): 100%
[2]
  ADCC (Activity (%) (of positive control)): 29.4%
  ADCC Mean RLU (surrogate reporter assay, spike-expressing target cells): 12000 RLU
[21]
  Binding signal (MFI): 172 MFI
[22]
  Binding signal (MFI): 235 MFI
[23]
  Binding signal (MFI): 196 MFI

## mAb10989 (antibody)
[18]
  IC50 (M), neutralization: 7.23e-12 M
[19]
  Neutralization (1:4 dilution): 100%
  Neutralization (1:20 dilution): 99.8%
  Neutralization (1:100 dilution): 98.2%
[2]
  ADCC (Activity (%) (of positive control)): 21.5%
  ADCC Mean RLU (surrogate reporter assay, spike-expressing target cells): 10200 RLU
[4]
  Binding signal (MFI): 15500 MFI
[5]
  Binding signal (MFI): 16800 MFI
[6]
  Binding signal (MFI): 15100 MFI
[8]
  Binding signal (MFI): 18100 MFI
[9]
  Binding signal (MFI): 15900 MFI
[10]
  Binding signal (MFI): 16700 MFI
[11]
  Binding signal (MFI): 18300 MFI
[12]
  Binding signal (MFI): 15800 MFI
[13]
  Binding signal (MFI): 3370 MFI
[14]
  Binding signal (MFI): 19600 MFI
[15]
  Binding signal (MFI): 15200 MFI
[16]
  Binding signal (MFI): 6140 MFI
[17]
  Binding signal (MFI): 17800 MFI
[21]
  Binding signal (MFI): 186 MFI
[22]
  Binding signal (MFI): 206 MFI
[23]
  Binding signal (MFI): 161 MFI

## mAb10933 (antibody)
[19]
  Neutralization (1:100 dilution): 88.4%
[2]
  ADCC (Activity (%) (of positive control)): 68.5%
  ADCC Mean RLU (surrogate reporter assay, spike-expressing target cells): 9740 RLU
